Results from US20220054646A1 (Bicycle, published 2022).
*1 amine or outer side, *2 acyl side, *3 side chain or, on linkers, in order; H or OH if unused. Bridges are numbered along the chain shown (N, C = ends). Where no end group is shown, it is not given here. TBMB = c1c(C[*:1])cc(C[*:3])cc1C[*:2]

B1: 21-31-01-N001 (peptide)
peptide: CIECYIMEDGTCA
modifications: linker 1-4-12 via TBMB (inferred)
notes: Bicyclic peptide on TBMB scaffold
B2: 21-31-N002 (peptide)
peptide: ACMVCHMMEDGTCA
modifications: linker 2-5-13 via TBMB (inferred)
notes: as for B1
B3: 21-31-11-T01-N001 (peptide)
peptide: FCSECYMMEDGTCA
modifications: linker 2-5-13 via TBMB (inferred)
notes: as for B1
B4: 21-31-04-T01-N007 (peptide)
peptide: EVCWDCFMMEDGTCAXXXXXXK
modifications: not fully specified; N-terminal acetyl (Ac); D-residue at the N-terminus (printed (D-E) / (D-Gln)); Sar6 = six sarcosine residues; C-terminal D-Lys; Ci, Cii and Ciii cyclised with TBMB (tri-substituted 1,3,5-trismethylbenzene scaffold)
notes: as for B1

Tests used:
[1] = target: T1, Prostate-specific membrane antigen (PSMA) (human, UniProt Q04609 44-750, limits assumed); test: fluorescence polarization assay, FP(h), PSMA
T1 construct: the construct used in the fluorescence polarization and enzyme assays is not described (methods cited from Shen et al 2013 and WO 2009/070302); also called Glutamate carboxypeptidase II; GCPII
Procedure: PSMA binding was measured using the fluorescence polarization assay methodology described in Shen et al (2013) PLOS ONE 8(7), e68339 and PSMA enzyme inhibition was measured using the methodology described in WO 2009/070302.

[2] = target: T1, Prostate-specific membrane antigen …; test: cell-based or functional assay

T1 sequence (Q04609 44-750 limits assumed): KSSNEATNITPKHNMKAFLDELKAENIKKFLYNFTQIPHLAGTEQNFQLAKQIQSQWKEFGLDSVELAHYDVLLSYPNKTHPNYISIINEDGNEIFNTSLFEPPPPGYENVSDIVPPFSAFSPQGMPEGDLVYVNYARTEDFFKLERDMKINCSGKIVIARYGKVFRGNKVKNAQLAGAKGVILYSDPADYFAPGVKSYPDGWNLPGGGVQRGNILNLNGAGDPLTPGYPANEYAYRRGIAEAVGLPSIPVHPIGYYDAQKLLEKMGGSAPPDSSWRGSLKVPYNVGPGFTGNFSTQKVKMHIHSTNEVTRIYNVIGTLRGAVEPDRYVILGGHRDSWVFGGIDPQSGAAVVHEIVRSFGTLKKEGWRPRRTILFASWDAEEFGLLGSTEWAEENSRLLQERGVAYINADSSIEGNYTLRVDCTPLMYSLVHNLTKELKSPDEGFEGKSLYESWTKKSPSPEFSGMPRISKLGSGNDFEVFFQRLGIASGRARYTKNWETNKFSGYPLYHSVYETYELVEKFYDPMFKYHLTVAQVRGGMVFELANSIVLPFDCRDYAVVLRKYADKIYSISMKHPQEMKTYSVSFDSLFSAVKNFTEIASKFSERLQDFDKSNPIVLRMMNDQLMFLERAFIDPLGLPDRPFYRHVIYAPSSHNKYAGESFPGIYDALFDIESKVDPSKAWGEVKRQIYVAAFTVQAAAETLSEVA

| Binder | Ki [1] [nM] | Enzyme inhibition IC50 [2] [nM] |
| --- | --- | --- |
| B1 | 70 | – |
| B2 | 40 | 695 |
| B3 | 6 | – |
| B4 | 30 | – |
